From publication PMC4012256

How the values were obtained:
[1] = target: αVβ3(N339S) transiently expressed on HEK293T cells (human) (UniProt P06756)
[2] = target: αVβ3(N339S) transiently expressed on HEK293T cells (human) (UniProt P06756); assay: flow cytometry on cells
[3] = target: wild-type αVβ3 stably expressed in K562 cells (K562-αVβ3) (human) (UniProt P06756); assay: flow cytometry on cells
Chain of wild-type αVβ3 stably expressed in K562 cells (K562-αVβ3) (human) (P06756 31-1048, chain 1 of 2): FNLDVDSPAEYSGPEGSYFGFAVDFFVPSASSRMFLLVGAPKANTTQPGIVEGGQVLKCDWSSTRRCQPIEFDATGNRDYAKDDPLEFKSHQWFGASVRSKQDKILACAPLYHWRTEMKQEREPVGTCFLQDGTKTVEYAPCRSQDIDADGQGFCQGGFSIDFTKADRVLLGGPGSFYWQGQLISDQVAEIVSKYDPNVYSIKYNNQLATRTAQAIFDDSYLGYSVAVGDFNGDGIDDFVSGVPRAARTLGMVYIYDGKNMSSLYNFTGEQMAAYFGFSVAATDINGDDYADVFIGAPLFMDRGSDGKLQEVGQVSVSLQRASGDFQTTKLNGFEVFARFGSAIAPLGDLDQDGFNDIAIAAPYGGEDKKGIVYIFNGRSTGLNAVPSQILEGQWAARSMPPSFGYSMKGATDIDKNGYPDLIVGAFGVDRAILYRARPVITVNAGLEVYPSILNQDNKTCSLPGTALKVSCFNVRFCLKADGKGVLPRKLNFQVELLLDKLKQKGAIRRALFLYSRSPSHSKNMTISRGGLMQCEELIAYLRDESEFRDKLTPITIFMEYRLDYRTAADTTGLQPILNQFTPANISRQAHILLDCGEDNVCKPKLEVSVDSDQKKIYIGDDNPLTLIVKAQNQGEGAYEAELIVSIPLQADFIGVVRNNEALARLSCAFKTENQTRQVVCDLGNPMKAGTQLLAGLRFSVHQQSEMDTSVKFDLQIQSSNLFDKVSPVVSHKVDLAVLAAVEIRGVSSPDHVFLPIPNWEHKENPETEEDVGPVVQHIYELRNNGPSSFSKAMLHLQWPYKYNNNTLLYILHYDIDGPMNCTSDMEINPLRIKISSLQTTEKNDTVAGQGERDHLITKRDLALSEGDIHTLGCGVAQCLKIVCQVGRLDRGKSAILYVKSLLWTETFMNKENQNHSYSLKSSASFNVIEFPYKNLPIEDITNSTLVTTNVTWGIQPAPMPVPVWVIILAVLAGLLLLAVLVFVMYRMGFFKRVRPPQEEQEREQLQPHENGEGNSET
Chain of wild-type αVβ3 stably expressed in K562 cells (K562-αVβ3) (human) (P05106 27-788, chain 2 of 2, further chain): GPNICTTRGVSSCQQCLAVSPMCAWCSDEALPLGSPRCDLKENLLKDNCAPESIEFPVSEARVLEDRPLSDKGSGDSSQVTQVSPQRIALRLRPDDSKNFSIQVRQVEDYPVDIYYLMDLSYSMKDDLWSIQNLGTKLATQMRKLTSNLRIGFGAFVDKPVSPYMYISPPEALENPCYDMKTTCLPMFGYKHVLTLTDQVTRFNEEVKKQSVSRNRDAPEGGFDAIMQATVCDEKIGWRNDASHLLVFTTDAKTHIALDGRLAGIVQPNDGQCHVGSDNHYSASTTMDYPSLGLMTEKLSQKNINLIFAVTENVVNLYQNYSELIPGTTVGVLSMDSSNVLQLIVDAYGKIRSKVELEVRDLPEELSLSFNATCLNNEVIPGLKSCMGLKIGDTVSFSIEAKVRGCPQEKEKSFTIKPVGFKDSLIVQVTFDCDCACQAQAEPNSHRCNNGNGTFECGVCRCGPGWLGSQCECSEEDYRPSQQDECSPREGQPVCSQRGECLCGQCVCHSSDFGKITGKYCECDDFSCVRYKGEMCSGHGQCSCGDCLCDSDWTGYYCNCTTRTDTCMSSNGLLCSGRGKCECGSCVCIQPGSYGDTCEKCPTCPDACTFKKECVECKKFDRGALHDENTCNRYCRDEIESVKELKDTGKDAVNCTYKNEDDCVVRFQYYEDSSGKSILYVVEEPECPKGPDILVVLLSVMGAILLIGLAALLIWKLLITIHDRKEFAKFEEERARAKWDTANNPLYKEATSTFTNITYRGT

Chain of 10th type III RGD-domain of wild-type fibronectin (wtFN10) (domain or fragment) (P02751 45-2432): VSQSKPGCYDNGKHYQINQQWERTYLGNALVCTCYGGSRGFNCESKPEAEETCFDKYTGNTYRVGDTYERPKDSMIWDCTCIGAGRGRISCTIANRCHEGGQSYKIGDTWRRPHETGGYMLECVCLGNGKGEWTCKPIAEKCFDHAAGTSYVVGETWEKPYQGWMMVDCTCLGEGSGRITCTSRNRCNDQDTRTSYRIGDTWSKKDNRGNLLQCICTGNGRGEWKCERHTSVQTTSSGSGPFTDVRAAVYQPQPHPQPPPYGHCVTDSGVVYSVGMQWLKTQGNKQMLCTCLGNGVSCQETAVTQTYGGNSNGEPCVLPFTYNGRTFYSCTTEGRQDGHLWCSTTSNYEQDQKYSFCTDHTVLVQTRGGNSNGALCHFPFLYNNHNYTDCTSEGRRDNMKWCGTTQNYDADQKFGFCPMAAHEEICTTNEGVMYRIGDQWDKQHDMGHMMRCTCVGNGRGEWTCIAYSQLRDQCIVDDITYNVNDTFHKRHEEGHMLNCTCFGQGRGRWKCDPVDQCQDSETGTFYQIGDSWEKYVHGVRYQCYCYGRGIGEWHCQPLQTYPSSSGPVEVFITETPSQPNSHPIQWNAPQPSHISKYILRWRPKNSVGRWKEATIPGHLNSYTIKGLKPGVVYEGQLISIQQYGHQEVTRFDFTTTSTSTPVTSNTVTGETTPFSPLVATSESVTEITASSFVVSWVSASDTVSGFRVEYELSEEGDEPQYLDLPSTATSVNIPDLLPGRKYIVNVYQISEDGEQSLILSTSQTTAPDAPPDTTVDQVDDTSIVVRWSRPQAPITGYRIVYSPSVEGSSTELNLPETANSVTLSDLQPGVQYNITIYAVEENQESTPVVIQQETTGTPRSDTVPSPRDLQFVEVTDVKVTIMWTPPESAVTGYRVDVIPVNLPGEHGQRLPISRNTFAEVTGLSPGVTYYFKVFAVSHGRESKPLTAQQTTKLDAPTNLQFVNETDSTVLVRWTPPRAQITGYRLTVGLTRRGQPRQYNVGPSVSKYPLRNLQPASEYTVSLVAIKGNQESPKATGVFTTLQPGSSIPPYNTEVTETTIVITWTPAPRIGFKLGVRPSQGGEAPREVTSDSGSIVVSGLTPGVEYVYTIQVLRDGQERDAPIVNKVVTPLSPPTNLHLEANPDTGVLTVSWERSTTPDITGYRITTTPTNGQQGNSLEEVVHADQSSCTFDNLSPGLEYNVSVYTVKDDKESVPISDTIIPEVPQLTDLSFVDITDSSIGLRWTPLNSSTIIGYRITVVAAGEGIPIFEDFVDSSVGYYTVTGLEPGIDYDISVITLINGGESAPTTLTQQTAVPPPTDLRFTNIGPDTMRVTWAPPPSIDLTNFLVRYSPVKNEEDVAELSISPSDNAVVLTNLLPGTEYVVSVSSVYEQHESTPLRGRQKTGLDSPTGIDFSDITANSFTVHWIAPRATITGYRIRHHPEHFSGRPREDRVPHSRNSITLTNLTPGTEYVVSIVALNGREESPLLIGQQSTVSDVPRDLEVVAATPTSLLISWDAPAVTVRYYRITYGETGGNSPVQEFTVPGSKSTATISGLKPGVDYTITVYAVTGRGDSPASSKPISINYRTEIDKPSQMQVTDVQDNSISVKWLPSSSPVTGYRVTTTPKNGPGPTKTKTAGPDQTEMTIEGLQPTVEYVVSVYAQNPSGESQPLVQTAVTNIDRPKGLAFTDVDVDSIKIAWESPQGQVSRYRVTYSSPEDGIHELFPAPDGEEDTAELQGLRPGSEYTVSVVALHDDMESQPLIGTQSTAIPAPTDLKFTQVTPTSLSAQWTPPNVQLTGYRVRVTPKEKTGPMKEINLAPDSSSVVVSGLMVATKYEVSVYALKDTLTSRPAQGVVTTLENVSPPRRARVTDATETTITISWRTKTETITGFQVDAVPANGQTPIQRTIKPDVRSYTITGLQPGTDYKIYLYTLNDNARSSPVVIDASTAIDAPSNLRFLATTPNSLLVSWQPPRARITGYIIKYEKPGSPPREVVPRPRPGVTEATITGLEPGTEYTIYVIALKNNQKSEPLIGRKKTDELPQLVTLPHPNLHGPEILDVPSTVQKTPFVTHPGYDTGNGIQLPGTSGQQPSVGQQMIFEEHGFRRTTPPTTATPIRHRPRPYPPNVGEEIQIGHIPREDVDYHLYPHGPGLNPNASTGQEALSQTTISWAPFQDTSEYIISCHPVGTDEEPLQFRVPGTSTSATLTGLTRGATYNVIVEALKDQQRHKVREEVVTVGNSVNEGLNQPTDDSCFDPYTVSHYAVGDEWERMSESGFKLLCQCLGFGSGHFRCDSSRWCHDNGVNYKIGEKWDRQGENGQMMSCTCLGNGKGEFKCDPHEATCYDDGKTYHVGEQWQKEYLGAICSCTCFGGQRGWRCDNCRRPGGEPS
Chain of αVβ3(N339S) transiently expressed on HEK293T cells (human) (P06756 31-1048, chain 1 of 2): as the sequence (P06756 31-1048, chain 1 of 2) above
Chain of αVβ3(N339S) transiently expressed on HEK293T cells (human) (P05106 27-788 N339S, chain 2 of 2, further chain): as the sequence (P05106 27-788, chain 2 of 2, further chain) above, with N313S counted along it

With “10th type III RGD-domain of wild-type fibronectin (wtFN10) (domain or fragment)” as the substance, how does the AP5 epitope expression (flow cytometry, HEK293T) [1] read?
Its AP5 epitope expression (flow cytometry, HEK293T) is 2 fold.

What about the fold increase of binding by the N339S mutation over wild-type αVβ3 [2] of the same substance?
The fold increase of binding by the N339S mutation over wild-type αVβ3 was 6 fold.

What about the fold increase of binding (MFI) in Mn2+ over Ca2+-Mg2+ [3] of the same substance?
The fold increase of binding (MFI) in Mn2+ over Ca2+-Mg2+ was 10 fold.
